According to patent publication US20220064275A1 (SCHOLAR ROCK, published 2022):

Legend:
[1] = biological target: hLRRC33-proTGFβ1 complex on cells (human, UniProt Q86YC3 19-692; P01137 30-390); experiment: cell-based or functional assay
[2] = biological target: hLTBP3-proTGFβ1 complex made by transfected cells (cell-based potency assay) (human, UniProt Q9NS15 44-1303; P01137 30-390); experiment: cell-based or functional assay
[3] = biological target: hGARP-proTGFβ1 complex on cells (human, UniProt Q14392 20-662; P01137 30-390); experiment: cell-based or functional assay
[4] = biological target: hLTBP1-proTGFβ1 complex made by transfected cells (cell-based potency assay) (human, UniProt Q14766 347-1721; P01137 30-390); experiment: cell-based or functional assay
[5] = biological target: T1, human mature TGFβ1 growth factor (human, UniProt P01137 279-390); experiment: in vitro binding assay
T1 construct: Bought from R&D Systems; also called active (mature) TGFβ1 growth factor; free TGFβ1 growth factor

[6] = biological target: T2, human LTBP1-proTGFβ1 complex (human, UniProt Q14766 873-1507); experiment: MSD-SET, solution equilibrium titration
T2 construct: range 873-1507; biotinylated in Octet and MSD-SET; also called hLTBP1-proTGFβ1; hLTBP1
Method: (§1) MSD-SET assays were performed to measure affinities of the antibodies at equilibrium. Briefly, each test antibody was diluted 3-5 fold and samples were mixed with biotinylated antigen in a 48-well dish. The SET samples were equilibrated for 20-24 hours at room temperature. Meanwhile, a capture plate was coated with IgG (20 nM) and incubated overnight at 4° C. or 30 minutes at room temperature, followed by a blocking step with 5% BSA. After the capture plate was washed three times, SET samples were added and incubated for 150 seconds. The plate was washed once to remove unbound complexes. 250 ng/ml SA-Sulfotag was added then washed 3 times. 2× Read Buffer was added, and signals from the labeled bound complexes were read with the use of QuickPlex™ SQ 120 instrument.
(§2) As an example, MSD standard plates (MSD) were coated with a 20 nM solution of monoclonal antibody in PBS for 30 min at room temperature or overnight at 4° C. […] After 20-24 hours of equilibration, the antibody-coated plate was blocked with Blocking Buffer A (MSD) for 30 minutes at room temperature and washed with wash buffer (PBS, 0.1% BSA, 0.05% Tween-20) before adding the equilibrated antibody-antigen complexes to the plate for exactly 2.5 minutes. The plate was washed again with wash buffer before adding 250 ng/ml SULFO-TAG-labeled streptavidin secondary reagent (MSD) in PBS with 0.1% BSA. After washing with wash buffer, plates were read in MSD read buffer (MSD) using the MESO QuickPlex SQ 120 (MSD). The binding data were processed by nonlinear curve fitting in Prism 7 software (Graphpad) to calculate equilibrium binding KD values.

[7] = biological target: T3, cynomolgus LRRC33-proTGFβ1 complex (cynomolgus monkey, UniProt A0A7N9CII2 32-663); experiment: MSD-SET, solution equilibrium titration
T3 construct: also called Cyno LRRC33-proTGFβ1
Method: as §1, §2

[8] = biological target: T4, human LTBP3-proTGFβ1 complex (human, UniProt Q9NS15 866-1039); experiment: MSD-SET, solution equilibrium titration
T4 construct: range 866-1039; also called hLTBP3-proTGFβ1; hLTBP3
Method: as §1, §2

[9] = biological target: T5, human GARP-proTGFβ1 complex (human, UniProt Q14392 20-627; P01137 30-390); experiment: MSD-SET, solution equilibrium titration
T5 construct: also called hGARP-proTGFβ1; hGARP
Method: as §1, §2

[10] = biological target: T6, cynomolgus LTBP1-proTGFβ1 complex (cynomolgus monkey); experiment: MSD-SET, solution equilibrium titration
T6 construct: also called Cyno LTBP1-proTGFβ1
Method: as §1, §2

[11] = biological target: rat LRRC33-proTGFβ1 complex (rat, UniProt Q5BK65 25-650; P17246 30-390); experiment: MSD-SET, solution equilibrium titration
Method: as §1, §2

[12] = biological target: T7, human LRRC33-proTGFβ1 complex (human, UniProt Q86YC3 19-650; P01137 30-390); experiment: MSD-SET, solution equilibrium titration
T7 construct: also called hLRRC33-proTGFβ1; hLRRC33
Method: as §1, §2

[13] = biological target: T8, murine LRRC33-proTGFβ1 complex (mouse, UniProt Q8BMT4 20-651, limits assumed); experiment: MSD-SET, solution equilibrium titration
T8 construct: also called mLRRC33-proTGFβ1
Method: as §1, §2

[14] = biological target: T9, murine GARP-proTGFβ1 complex (mouse, UniProt G3XA59 18-628; P04202 30-390); experiment: MSD-SET, solution equilibrium titration
T9 construct: Soluble murine complex; also called mGARP-proTGFβ1
Method: as §1, §2

[15] = biological target: T10, murine LTBP1-proTGFβ1 complex (mouse, UniProt Q8CG19 339-1712; P04202 30-390, limits assumed); experiment: MSD-SET, solution equilibrium titration
T10 construct: also called mLTBP1-proTGFβ1
Method: as §1, §2

[16] = biological target: rat LTBP1-proTGFβ1 complex (rat, UniProt Q00918 339-1712; P17246 30-390); experiment: MSD-SET, solution equilibrium titration
Method: as §1, §2

[17] = biological target: T11, human mature TGFβ3 growth factor (human, UniProt P10600 301-412); experiment: in vitro binding assay (BLI protocol at p-1008)
T11 construct: mature
T11 sequence (looked up): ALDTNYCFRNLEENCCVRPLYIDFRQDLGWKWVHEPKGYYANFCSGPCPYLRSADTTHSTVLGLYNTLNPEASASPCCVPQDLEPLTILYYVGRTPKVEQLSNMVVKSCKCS
Method: (§3) AR2G biosensors were first allowed to hydrate in water offline for at least 10 minutes before initiation of the experiment. Upon initiation of the experiment, AR2G tips were equilibrated in water for 1 minute. Then, the tips were moved into a freshly prepared activation solution (18 parts water, 1 part 400 mM EDC (1-Ethyl-3-[3-dimethylaminopropyl] carbodiimide hydrochloride), and 1 part 200 mM sulfo-NHS (N-hydroxysulfosuccinimide)) for 5 minutes. Recombinant TGFβ protein (10 ug/mL in 10 mM sodium acetate buffer pH 5) was coupled to the activated tips for 3 minutes before quenching with ethanolamine pH 8.5 for 15 minutes. […] Finally, a ten minute dissociation was performed.

[18] = biological target: T12, human mature TGFβ2 growth factor (human, UniProt P61812 303-414); experiment: in vitro binding assay (BLI protocol at p-1008)
T12 construct: mature
T12 sequence (looked up): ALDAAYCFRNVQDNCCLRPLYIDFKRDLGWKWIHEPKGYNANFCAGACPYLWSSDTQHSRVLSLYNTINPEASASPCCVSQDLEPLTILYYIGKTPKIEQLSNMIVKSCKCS
Method: as §3

T7 sequence (Q86YC3 other isoform, or with tags, fused parts or gaps limits assumed, chain 1 of 2): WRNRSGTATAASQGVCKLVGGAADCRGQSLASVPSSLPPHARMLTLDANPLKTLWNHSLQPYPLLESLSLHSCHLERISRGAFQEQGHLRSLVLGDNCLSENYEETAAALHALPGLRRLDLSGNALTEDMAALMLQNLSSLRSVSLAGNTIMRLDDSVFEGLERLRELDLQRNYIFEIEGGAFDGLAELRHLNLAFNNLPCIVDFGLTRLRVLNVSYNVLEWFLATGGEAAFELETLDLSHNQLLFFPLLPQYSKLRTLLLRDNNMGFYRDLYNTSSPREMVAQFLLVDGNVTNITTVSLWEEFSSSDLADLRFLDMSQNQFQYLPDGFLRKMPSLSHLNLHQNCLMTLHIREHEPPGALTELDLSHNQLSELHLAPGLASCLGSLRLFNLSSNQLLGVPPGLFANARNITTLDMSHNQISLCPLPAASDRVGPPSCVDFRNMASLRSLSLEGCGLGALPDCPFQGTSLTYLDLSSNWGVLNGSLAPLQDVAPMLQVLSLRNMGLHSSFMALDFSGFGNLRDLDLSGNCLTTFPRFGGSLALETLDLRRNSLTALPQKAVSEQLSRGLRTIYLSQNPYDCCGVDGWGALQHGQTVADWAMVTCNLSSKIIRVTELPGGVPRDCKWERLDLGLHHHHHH
T7 sequence (P01137 30-390 limits assumed, chain 2 of 2): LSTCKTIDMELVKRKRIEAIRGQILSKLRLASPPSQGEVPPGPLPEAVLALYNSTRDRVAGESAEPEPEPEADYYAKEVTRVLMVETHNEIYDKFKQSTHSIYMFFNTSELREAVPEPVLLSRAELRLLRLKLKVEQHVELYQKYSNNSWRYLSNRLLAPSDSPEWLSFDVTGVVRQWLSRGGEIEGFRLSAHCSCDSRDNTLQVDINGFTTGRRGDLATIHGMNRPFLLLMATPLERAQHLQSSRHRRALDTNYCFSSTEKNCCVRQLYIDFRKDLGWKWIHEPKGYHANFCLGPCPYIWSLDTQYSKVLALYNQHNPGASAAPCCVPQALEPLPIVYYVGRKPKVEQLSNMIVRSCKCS
T5 sequence (Q14392 20-627, chain 1 of 2): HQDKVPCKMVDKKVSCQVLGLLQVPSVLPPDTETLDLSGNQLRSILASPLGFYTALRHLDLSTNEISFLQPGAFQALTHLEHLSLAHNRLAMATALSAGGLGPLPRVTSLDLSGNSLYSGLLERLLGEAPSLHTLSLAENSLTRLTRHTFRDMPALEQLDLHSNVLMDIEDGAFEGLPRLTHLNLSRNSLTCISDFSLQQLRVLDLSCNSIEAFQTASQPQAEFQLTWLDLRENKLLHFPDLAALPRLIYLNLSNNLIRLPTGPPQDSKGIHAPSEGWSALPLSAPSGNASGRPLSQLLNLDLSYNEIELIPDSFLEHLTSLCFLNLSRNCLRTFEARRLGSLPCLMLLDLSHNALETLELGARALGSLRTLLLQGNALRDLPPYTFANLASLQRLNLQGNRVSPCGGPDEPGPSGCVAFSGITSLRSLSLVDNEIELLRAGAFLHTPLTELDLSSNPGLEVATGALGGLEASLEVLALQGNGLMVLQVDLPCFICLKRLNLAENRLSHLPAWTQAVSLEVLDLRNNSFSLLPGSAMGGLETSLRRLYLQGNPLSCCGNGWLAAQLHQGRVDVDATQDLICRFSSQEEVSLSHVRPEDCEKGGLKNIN
T5 sequence (P01137 30-390, chain 2 of 2): as the sequence (P01137 30-390 limits assumed, chain 2 of 2) above
T10 sequence (Q8CG19 339-1712 limits assumed, chain 1 of 2): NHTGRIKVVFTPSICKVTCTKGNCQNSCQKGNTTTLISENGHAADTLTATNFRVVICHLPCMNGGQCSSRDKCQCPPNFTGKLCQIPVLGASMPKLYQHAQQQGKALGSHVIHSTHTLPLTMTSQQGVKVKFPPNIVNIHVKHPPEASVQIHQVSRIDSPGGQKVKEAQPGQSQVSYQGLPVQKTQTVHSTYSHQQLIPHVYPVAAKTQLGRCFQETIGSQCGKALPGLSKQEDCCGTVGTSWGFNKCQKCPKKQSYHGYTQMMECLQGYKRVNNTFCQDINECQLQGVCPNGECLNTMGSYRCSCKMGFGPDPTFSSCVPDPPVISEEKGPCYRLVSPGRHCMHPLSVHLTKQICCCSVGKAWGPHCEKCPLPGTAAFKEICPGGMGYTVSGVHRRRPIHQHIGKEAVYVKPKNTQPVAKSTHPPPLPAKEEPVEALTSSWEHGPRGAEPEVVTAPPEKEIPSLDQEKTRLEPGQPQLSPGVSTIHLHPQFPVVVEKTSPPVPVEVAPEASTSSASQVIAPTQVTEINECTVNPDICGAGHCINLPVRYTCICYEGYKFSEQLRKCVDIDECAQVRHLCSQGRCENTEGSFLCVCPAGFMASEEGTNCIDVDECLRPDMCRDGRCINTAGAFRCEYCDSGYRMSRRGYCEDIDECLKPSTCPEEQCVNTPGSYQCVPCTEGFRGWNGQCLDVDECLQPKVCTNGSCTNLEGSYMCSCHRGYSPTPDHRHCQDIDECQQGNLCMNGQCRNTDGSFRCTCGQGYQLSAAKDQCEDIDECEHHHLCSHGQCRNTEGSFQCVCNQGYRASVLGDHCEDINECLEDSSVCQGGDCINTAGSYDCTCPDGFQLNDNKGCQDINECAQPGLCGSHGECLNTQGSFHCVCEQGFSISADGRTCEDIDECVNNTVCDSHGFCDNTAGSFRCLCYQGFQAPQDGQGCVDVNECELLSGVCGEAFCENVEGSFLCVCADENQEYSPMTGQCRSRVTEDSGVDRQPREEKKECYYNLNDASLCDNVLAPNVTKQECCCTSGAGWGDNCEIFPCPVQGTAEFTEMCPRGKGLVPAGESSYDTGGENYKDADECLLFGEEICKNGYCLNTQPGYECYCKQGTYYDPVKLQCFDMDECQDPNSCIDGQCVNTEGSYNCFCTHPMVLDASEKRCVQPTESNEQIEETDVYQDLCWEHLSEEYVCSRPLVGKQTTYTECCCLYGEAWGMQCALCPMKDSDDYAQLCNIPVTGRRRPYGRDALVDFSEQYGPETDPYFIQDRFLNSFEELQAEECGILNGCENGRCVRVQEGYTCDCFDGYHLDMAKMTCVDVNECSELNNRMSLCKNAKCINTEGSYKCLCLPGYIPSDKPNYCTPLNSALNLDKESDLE
T10 sequence (P04202 30-390 limits assumed, chain 2 of 2): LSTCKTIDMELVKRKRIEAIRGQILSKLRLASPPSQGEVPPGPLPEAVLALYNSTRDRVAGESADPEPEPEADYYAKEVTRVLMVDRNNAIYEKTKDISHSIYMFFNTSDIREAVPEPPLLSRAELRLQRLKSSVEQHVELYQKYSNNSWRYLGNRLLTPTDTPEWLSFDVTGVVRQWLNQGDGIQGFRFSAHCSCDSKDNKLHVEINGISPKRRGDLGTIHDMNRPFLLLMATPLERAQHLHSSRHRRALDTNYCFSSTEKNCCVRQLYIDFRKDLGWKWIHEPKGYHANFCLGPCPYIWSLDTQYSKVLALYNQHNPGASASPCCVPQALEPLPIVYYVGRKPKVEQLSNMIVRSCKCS
T9 sequence (G3XA59 18-628, chain 1 of 2): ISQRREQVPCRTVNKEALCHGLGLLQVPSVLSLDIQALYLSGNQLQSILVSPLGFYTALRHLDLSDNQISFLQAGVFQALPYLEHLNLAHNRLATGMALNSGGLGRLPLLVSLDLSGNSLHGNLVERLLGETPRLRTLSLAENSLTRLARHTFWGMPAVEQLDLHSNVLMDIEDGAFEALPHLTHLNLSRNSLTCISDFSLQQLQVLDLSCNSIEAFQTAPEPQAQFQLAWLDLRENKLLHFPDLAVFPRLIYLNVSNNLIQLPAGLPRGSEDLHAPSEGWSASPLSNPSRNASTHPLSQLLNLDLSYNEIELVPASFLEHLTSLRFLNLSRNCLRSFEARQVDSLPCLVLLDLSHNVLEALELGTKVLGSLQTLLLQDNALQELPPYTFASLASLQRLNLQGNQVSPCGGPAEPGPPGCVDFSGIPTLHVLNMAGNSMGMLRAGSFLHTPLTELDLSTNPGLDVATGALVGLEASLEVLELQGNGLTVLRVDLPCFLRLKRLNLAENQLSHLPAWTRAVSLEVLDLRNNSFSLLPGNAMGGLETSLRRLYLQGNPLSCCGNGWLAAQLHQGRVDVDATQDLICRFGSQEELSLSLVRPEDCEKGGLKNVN
T9 sequence (P04202 30-390, chain 2 of 2): as the sequence (P04202 30-390 limits assumed, chain 2 of 2) above
Chain of hLRRC33-proTGFβ1 complex on cells (Q86YC3 19-692 limits assumed, chain 1 of 2): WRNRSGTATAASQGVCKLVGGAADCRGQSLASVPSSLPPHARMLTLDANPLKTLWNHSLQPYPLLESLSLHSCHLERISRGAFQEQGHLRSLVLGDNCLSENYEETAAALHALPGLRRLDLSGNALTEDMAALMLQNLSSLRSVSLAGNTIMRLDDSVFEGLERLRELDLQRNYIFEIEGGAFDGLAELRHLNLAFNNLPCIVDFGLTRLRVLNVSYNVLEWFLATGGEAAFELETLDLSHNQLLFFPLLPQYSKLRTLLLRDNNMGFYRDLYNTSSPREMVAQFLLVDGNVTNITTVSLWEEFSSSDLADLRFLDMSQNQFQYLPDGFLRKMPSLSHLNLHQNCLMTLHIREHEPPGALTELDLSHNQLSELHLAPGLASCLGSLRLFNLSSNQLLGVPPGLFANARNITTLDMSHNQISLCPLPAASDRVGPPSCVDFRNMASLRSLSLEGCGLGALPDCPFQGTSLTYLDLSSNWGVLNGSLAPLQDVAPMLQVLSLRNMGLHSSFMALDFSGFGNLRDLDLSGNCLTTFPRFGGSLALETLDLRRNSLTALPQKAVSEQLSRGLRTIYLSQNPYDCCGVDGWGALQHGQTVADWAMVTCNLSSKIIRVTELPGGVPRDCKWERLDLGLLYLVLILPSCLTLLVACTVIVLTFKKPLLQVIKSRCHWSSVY
Chain of hLRRC33-proTGFβ1 complex on cells (P01137 30-390 limits assumed, chain 2 of 2): as the sequence (P01137 30-390 limits assumed, chain 2 of 2) above
T4 sequence (Q9NS15 866-1039 limits assumed, chain 1 of 2): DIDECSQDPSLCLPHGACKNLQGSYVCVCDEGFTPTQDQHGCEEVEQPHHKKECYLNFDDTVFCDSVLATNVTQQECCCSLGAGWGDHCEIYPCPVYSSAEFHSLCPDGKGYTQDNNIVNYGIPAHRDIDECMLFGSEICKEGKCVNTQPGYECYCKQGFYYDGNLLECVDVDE
T4 sequence (chain, as listed by the source limits assumed, chain 2 of 2): as the sequence (P01137 30-390 limits assumed, chain 2 of 2) above

B1: Ab6 (antibody, human IgG4 S228P, kappa, V domains shown)
VH: EVQLVESGGGLVQPGGSLRLSCTASGFTFSSFSMDWVRQAPGKGLEWVSYISPSADTIYYADSVKGRFTISRDNAKNTLYLQMNSLRAEDTAVYYCARGVLDYGDMLMPWGQGTLVTVSS
VL: DIQMTQSPSSLSASVGDRVTITCQASQDITNYLNWYQQKPGKAPKLLIYDASNLETGVPSRFSGSGSGTDFTFTISSLQPEDIATYYCQQADNHPPWTFGGGTKVEIKR
[1]
  IC50, reporter cell assay of TGFβ1 activation: 0.495 nM
[2]
  IC50, reporter cell assay of TGFβ1 activation: 0.821 nM
[3]
  IC50, reporter cell assay of TGFβ1 activation: 0.324 nM
[4]
  IC50, reporter cell assay of TGFβ1 activation: 2.74 nM
[5]
  binding result: no binding
[6]
  Kd: 0.018 nM
[7]
  Kd: 0.093 nM
[8]
  Kd: 0.029 nM
[9]
  Kd: 0.027 nM
[10]
  Kd: 0.039 nM
[11]
  Kd: 0.086 nM
[12]
  Kd: 0.063 nM
[13]
  Kd: 0.048 nM
[14]
  Kd: 0.021 nM
[15]
  Kd: 0.024 nM
[16]
  Kd: 0.035 nM
[17]
  binding result: no binding
[18]
  binding result: no binding
